In paper PMC8808280 (Nature, 2021):

Molecular target: T1, Receptor-associated protein (RAP) (human, UniProt P30533 35-353)
T1 sequence (looked up): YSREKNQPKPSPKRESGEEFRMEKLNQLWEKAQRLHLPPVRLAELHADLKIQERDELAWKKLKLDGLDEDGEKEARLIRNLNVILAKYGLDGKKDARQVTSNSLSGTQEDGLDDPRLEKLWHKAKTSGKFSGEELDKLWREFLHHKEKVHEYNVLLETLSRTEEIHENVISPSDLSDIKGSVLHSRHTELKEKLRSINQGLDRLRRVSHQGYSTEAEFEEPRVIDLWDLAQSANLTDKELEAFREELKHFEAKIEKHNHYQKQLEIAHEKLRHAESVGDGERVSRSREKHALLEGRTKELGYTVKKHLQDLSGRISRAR
Assay: BLI

B1: ApoER2 isoform 1 LBD-Fc fusion protein (Fc fusion)
chain: not shown
binding result: binds
